Assay results as given in paper PMC10190621 (Advanced Science, 2023).

Target: T1, His-tagged KEAP1 (C-terminal amino acids 312-624, containing the Kelch domain) (human, UniProt Q14145 312-624)
T1 construct: plasmid by Tsingke Biotechnology; also called His-KEAP1; Kelch domain of KEAP1; source: E. coli BL21 (DE3), purified (Ni-NTA column, gel filtration)
Test: pull-down; His pulldown, competition: 10 µg His-KEAP1 on His immunomagnetic beads, mixed with NRF2 and 5 or 10 µg DDRGK1 protein at 4 °C overnight, washed three times, immunoblot
Conditions: both partners purified

T1 sequence (Q14145 312-624): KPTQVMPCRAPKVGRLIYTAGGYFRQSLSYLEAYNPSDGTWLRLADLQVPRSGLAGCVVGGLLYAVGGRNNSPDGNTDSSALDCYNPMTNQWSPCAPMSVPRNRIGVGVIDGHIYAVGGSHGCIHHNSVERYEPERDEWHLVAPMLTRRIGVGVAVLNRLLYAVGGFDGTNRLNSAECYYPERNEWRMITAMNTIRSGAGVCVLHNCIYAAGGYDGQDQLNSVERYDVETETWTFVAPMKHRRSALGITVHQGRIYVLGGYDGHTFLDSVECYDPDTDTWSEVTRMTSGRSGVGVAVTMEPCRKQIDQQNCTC

binding result: binds
B1: GST-tagged NRF2 (N-terminal amino acids 1-84, containing domains interacting with KEAP1) (domain or fragment, human, UniProt Q16236 1-84, looked up)
chain: MMDLELPPPGLPSQQDMDLIDILWRQDIDLGVSREVFDFSQRRKEYELEKQKKLEKERQEQLQKEQEKAFFAQLQLDEETGEFL
notes: N-terminal domain (residues 1-84) of human NRF2; plasmid by Tsingke Biotechnology; also called GST-NRF2; NRF2 protein; source: E. coli BL21 (DE3), purified (GSH column, gel filtration)
